Test results published in the nanobody polyreactivity screen of Harvey et al. (2022).

Test: yeast display, Sf9 membrane polyspecificity reagent, FACS + sequencing; frameworks hold sequencing errors
Outline: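 Nanobodies from a synthetic yeast display library (Saccharomyces cerevisiae BJ5465), induced 36–48 hours with galactose, were stained 1 hour at 4 °C with 10% biotinylated, detergent-solubilized Sf9 membrane reagent, enriched on streptavidin microbeads, then FACS-sorted. Anti-HA (expression) and streptavidin (reagent binding) fluorescence set low and high (top ~1%) gates. Polyreactivity labels come from the gate of origin. Genes were colony-PCR amplified, MiSeq 2 × 250 sequenced and filtered by CDR length.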
With “QVQLVESGAGLVQAGGSLRLSCAASGFIFWRNTMGWYRQAPGKERELVAVITRGGSTYYADSVKGRFTISRDNAKNTVYLQMNSLKPVDTAVYYCNADNVVEGYDRRSARASYRYYYWGQGTQVTVSS” the “polyreactivity (PSR sort gate)” value was “low polyreactivity”. For “QVQLVESGAGLVQAGGSLRLSCAASGFTFQYYAMGWYRQAPGKERELVATISSTDNTYYADSVKGRFTISRDNAKNTVYLQMNSLKPEDTAVYYCAARPTYRRRQGRGYWGQGTQVTVSS”, the “polyreactivity (PSR sort gate)” value was “high polyreactivity”. For “QVQLVESGAGLVQAGGSLRLSCAASGFTFWRYVMGTYRPAPGKERELVAGITSGGSTYYADSVKGRFTISRDNAKNTVYLQMNSLKPEDTAVYYCAARSGFRSRHKYDYWGQGTQVSVSS”, the “polyreactivity (PSR sort gate)” value was “high polyreactivity”. In the case of “QVQLVESGAGLVQAGGSLRLSCAASGFTFYYNAMGWYRQAPGKERELVASISSNGTSTYYADSVKGRFTISRDYAKNTVYLQMNSLKPEDTAVYYCNVDIFDPRTYDYWGQGTQVTVSS”, the “polyreactivity (PSR sort gate)” value is reported as “low polyreactivity”. For “QVQLVESGAGLVQAGGSLRLSCAASGIIFSGYAMGWYTQAPGKERELVAAISYSGASTYYADSVKGRFTISRDNAKNTVYLQMNSLKPEDTAVYYCAADRRYARYWNGWRYNYWGQGTQVTVSS”, the “polyreactivity (PSR sort gate)” value was “high polyreactivity”. With “QVQLVESGAGLVQAGGSLRLSCAASGITFSYYSMGWYRQAPGKERELVAVISGSGSTTSYADSVKGRFTISRDNAKNTVYLQMNSLKPEDTAVYYCAADGGWRPEYYYWGQGTQVTVSS” the “polyreactivity (PSR sort gate)” value was “low polyreactivity”. In the case of “QVQLVESGAGLVQAGGSLRLSCAASGLIFQSNAMVWYRQAPGKERELVAAISTAGSTNYGDSETGRFTISRDNAKKTVFLQMNSLKREDTAVYSCAAQVSTPYRYPRQILYDYWGQGTQVTVSS”, the “polyreactivity (PSR sort gate)” value is reported as “low polyreactivity”. For “QVQLVESGAGLVQAGGSLRLSCAASGLTFLQNALGWSRQAPGNERELVAAINIGTNTYADSVKGRFTISRDNAKNTVYLQMNSLKPEDTAVDYCNTDSAPYYWLSDNYDSWGQGTQVTVSS”, the “polyreactivity (PSR sort gate)” value was “low polyreactivity”. In the case of “QVQLVESGAGLVQAGGSLRLSCAASGLTSTNNAMGWYRQAPGKERELVAAITSGSTTNYADSVKGRFTISRDNAKNTVYLQMNSLKPEDTAVYYCAAQYGVWWRRYYYPEYDYWGQGTQVTVSS”, the “polyreactivity (PSR sort gate)” value is reported as “low polyreactivity”. In the case of “QVQLVESGAGLVQAGGSLRLSCAASGNIFRFYAMGWYRQAPGKERELVAAISYNGGRTYYADSVKGRFTISRDNAKNTVYLQMNILKPEDTAVYYCNAAGRDDAYDYWGQGTQVTVAS”, the “polyreactivity (PSR sort gate)” value is reported as “high polyreactivity”. With “QVQLVESGAGLVQAGGSLRLSCAASGRIFHFYAMGWYRQAPGKERELVAAITSRTGNTYYADSVKGRFTISRDNAKNTVYLQMNSLKPEDTAVYYCAAKLVNALLHYRNWNHNNYWGQGTQVTVSS” the “polyreactivity (PSR sort gate)” value was “low polyreactivity”. With “QVQLVESGAGLVQAGGSLRLSCAASGRIFNWYVMGWYRQAPGKERELVAAINSGGITKYADSVKGRFTISRDNAKNTVYLQMNSLKPEDTAVYYCAAYYRRYDYDYWGQGTQVTVSS” the “polyreactivity (PSR sort gate)” value was “high polyreactivity”. In the case of “QVQLVESGAGLVQAGGSLRLSCAASGRIFTNYVLGWSRQAPGKERELVAAISWTGGRTYYADSVKGRFTISRDYAKNTVYLQMISLKPEDTAVYYCAARARIGTVDYWGQGTQVTVSS”, the “polyreactivity (PSR sort gate)” value is reported as “high polyreactivity”. In the case of “QVQLVESGAGLVQAGGSLRLSCAASGRTFGRYAMAWYRQAPGKERELVAAINNGGGTYYADSVKGLFTISRDNAKNTVYLLINSLYPEDTAVYYCAAATRKRVGSYYYWGQGTQVTVSS”, the “polyreactivity (PSR sort gate)” value is reported as “high polyreactivity”. For “QVQLVESGAGLVQAGGSLRLSCAASGRTFVDNTMGLYTHAPGKERELVASISSGGSTYYADSVKGRFTISRDNAKNTVYLQMNRLKPEDTAVYDCATGDTLFVFYPDYEYWGQGTQVTVSS”, the “polyreactivity (PSR sort gate)” value was “low polyreactivity”. With “QVQLVESGAGLVQAGGSLRLSCAASGRTFWWYAMGWDRQAPGKERELVADINGSGGSTYYADSVKGRFTISRDNAKNTVYLQMICLKPEDTAVYFCAADYYRYIHSVVYSIYDYWGQGTQVTVSS” the “polyreactivity (PSR sort gate)” value was “low polyreactivity”. For “QVQLVESGAGLVQAGGSLRLSCAASGRTIRSYAMGWYRQATGKERELVAAISSGGRTYYADSVKGRFTISRDNAKNNVYLQMNSLKPEDTAVYYCAVRYRVYIFQYGYWGQGTQVTVSS”, the “polyreactivity (PSR sort gate)” value was “high polyreactivity”. For “QVQLVESGAGLVQAGGSLRLSCAASGSIFAWYGMGWYRQAPGQERELVAAISTAGSTNYADSVKGRFTISRDNAKNTVYLQMNSLKPEDTAVYYCAKISSWYYPERFDYWGQGTQVTVSS”, the “polyreactivity (PSR sort gate)” value was “low polyreactivity”. In the case of “QVQLVESGAGLVQAGGSLRLSCAASGSIFDVNAMGWYRQAPGKERELVAAISQRGTRTYYADSVKGRFTISRDNAKNTVYLQMNRLKPEDTAVYYFNRGGWRKYDSWGQGTQVTVSS”, the “polyreactivity (PSR sort gate)” value is reported as “high polyreactivity”. For “QVQLVESGAGLVQAGGSLRLSCAASGSIFLYNDMGWYRQAPGKERELVAAITSDGSTNYADSVKGRFTISRDNAMNTVYLQMNSLKPEDNAVYYCAADALWFYLNWYYGGTAYGYWGQCTQVTVSS”, the “polyreactivity (PSR sort gate)” value was “low polyreactivity”. With “QVQLVESGAGLVQAGGSLRLSCAASGSIFRVYAMGWYRQAPGKERELVAAISQSADSTYYADSVKGRFTILRDNAKYTVYLQMNSLKPEDTAVYYCAAEYPYIYRFDYWGQGTQVTVSS” the “polyreactivity (PSR sort gate)” value was “low polyreactivity”. In the case of “QVQLVESGAGLVQAGGSLRLSCAASGSIFYPYAMGWYRQAPGKERELVAAITYSGGSTYADSVKGRFTISRDNAKNTVYLQMNSLKPEDTAVYYCAARYIIHVGSWYDYWGQGTQVTVSS”, the “polyreactivity (PSR sort gate)” value is reported as “high polyreactivity”. In the case of “QVQLVESGAGLVQAGGSLRLSCAASGSTFEVYAMGWYRQAPGKVMELVADISHIGGSTYSADSVMGRFTISRDNAKNTVYLQLNSLKPEDTAVYYCNAYTVYAYDYWGQGTQVTVSS”, the “polyreactivity (PSR sort gate)” value is reported as “low polyreactivity”. For “QVQLVESGAGLVQAGGSLRLSCAASGSTFWYYAMGLYRQAPGKERELVAAITRDGNTYYADSVKGRFTISRDNAMNSFYLQMNSLKREDTAVYYCAAGFYLLGKYDYWGQGTQVTVSS”, the “polyreactivity (PSR sort gate)” value was “high polyreactivity”. For “QVQLVESGAGLVQAGGSLRLSCAASGSTFYPYAMGWYRQAPGKERELVAAISWSGGSTYYADSVKGRFTISRDNAKNTVYLQMNSLKPEDTAVYYCAAEYYYIAYTMDYWGQGTQVTVSS”, the “polyreactivity (PSR sort gate)” value was “high polyreactivity”. In the case of “QVQLVESGAGLVQAGGSLRLSCAASGSTLVYNDMGWYRQAPGKDREFVAAIRSNDGSTYYADSVKGRFTISRDNAKNTVYLQMNSLKPEDTAVYYCAKDSRNVYWDYGYWGQGTQVTVSS”, the “polyreactivity (PSR sort gate)” value is reported as “low polyreactivity”. In the case of “QVQLVESGAGLVQAGGSLRLSCAPSGRTFDYYAMGWYRQAPGKERELVADITKDGGSTYYADSVKGRFTISRDNAKNSVYLQMISLKPEDTAVYYCAADGPPQYYDPIHYDYWGQGTQVTVSS”, the “polyreactivity (PSR sort gate)” value is reported as “low polyreactivity”. For “QVQLVESGAGLVQAGGSLRLSCAPSGRTFWGKVMGWYRQAPGKERELVAAITGRVGSTRYADSVKGRFTISRDNAKNTVFLQMNSLKPEDTAVYYCNADDYELYDYWGQGTQVTVSS”, the “polyreactivity (PSR sort gate)” value was “low polyreactivity”. For “QVQLVESGAGLVQAGGSLRLSCAPSGSILVNPIGWYRQAPGKEREFVAAISSGGSTKYADSVKGRFTISRDNAKNTVYLQMNSLKPEATAVYYCNARRRGAGGYDYWGQVTQVTVSS”, the “polyreactivity (PSR sort gate)” value was “high polyreactivity”. With “QVQLVESGAGLVQAGGSLRLSWAASGFTFAQNAMGWYTQAPGKERELVAAISRRGGSTYYADSVKGRFTISRDNAKNTVYLQMNSLKPEDTAVYYCDTAGTYTGGEGYWGQGTQVTVSS” the “polyreactivity (PSR sort gate)” value was “high polyreactivity”. With “QVQLVESGAGLVQAGGSLRLSWAASGRIFTGNGMGWYRQAPGKEMELVAGIRNGGGRTYYADSVKGRFTISRDNAKNTVYLKMNSLKPEDTAVYYCAVRIYVRNSPGERLDKYDYWGQGTQVTVSS” the “polyreactivity (PSR sort gate)” value was “high polyreactivity”. With “QVQLVESGAGLVQAGGSLRLSWAPSGITFLYYAMGLYRQAPGTEMELVATISISGGSTYYADSVKGRFTISRDNAKYTVYLQMTSLQPEESAVYYCAADDSVVTYSYDTWLVDYDYWGQATQVTVSS” the “polyreactivity (PSR sort gate)” value was “low polyreactivity”. In the case of “QVQLVESGAGLVQAGGSLRLTCAASGFIFGYNARGWYRPAPGKERELVAAIRYRGVSTYYADSVKGRFTISRDNAKNTFYLQMNSLKPVETAVYYCNARTRVKTTQSYDRNYYYWGQGTQVTVSS”, the “polyreactivity (PSR sort gate)” value is reported as “high polyreactivity”. For “QVQLVESGAGLVQAGGSLSLSCAASGSIFGYYTMGWYRQAPGKERELVAAISRSGTSTFYADSVKGRFTISRDNAKNTVYLQMNSLKQEDTAVYYCNAVGSGYRSWYDYWGQGTKVTVSS”, the “polyreactivity (PSR sort gate)” value was “high polyreactivity”. With “QVQLVESGAGLVQAGVSLRLSCAASGRTFPYYAMGWYRQAPGKERELVARITYSGGSTYADSVKGRFPISRDNAKNTVYLQMNSLKPEDTAVYFCAAQYYAYLLDGYHRYDYWGLGTQVTVSS” the “polyreactivity (PSR sort gate)” value was “high polyreactivity”. In the case of “QVQLVESGAGLVQAGVSLRLSCAASGRTFRSNAMGWYRQAPGKERELVAAISWSGGSTYYADSVKGRFTISRDNAKNTVYLQMNSLKPEDTAVYDCAVGGSGYGRFGGGYARDYWGQGTLVTVSS”, the “polyreactivity (PSR sort gate)” value is reported as “high polyreactivity”. With “QVQLVESGAGLVQARGSLRISCAASGSIFGRYAMGWYRQAPRKERELVASIYSTGGRTYYADSVKGRFTISRDNAKNTVYLQMNSLKPEDTAVYYCAAKFYEYSTAGTQWIRYYYWGQGTQVTVSS” the “polyreactivity (PSR sort gate)” value was “high polyreactivity”. For “QVQLVESGAGLVQARGSLRLSCAASGSIFLSYVMGWYRQAPGKERELVAAISKRGGRTYYADSVKGRFTISRDNAKNTVYLQMNSLKPEDTAVYYCNAVTQRESEEGDYWGQGTQVTVSS”, the “polyreactivity (PSR sort gate)” value was “high polyreactivity”. With “QVQLVESGAGLVQARGSLRLSCAASGYTFLGYAMGWYRQAPGKERELVAAINRSGSSTYYADSVKGRFTISRDNAKNTVYLQMNSLKPEDTAVYYCNARSGNRYGPRYDYWGQGTQVTVSS” the “polyreactivity (PSR sort gate)” value was “high polyreactivity”. With “QVQLVESGAGVGQAGGSLRLSCAASGSIFTPYAMGWYRPAPGKERELVAGITSGGNTNYADSVKGRFTISRDNAKNTVYLQMNSLKPEDTAVYYCAARYIYYYAYGYNYWGQGTKVTVSS” the “polyreactivity (PSR sort gate)” value was “high polyreactivity”.
